These results are taken from PMC2892007.

Broadly, the Kd is the concentration at which binding is half-saturated. Lower therefore signals a tighter complex. A word on the koff: it is the first-order rate constant of dissociation. Higher therefore signals a short-lived complex. In general, kon refers to a measure of how fast the partners come together. As usually defined, the stoichiometry N is the number of molecules, sites or subunits per partner or assembly.

For experiment [1], the target named is LigA LigAVar10 (Leptospira interrogans) (UniProt Q72MA6). Description: SPR. (In general: In SPR one partner is held on a chip, and binding of the other changes the refractive index at the surface.)
Experiment [2] has as its target LigA LigAVar11 (Leptospira interrogans) (UniProt Q72MA6). Kind of experiment: SPR.
Experiment [3] has as its target LigA LigAVar12 (Leptospira interrogans) (UniProt Q72MA6). Kind of experiment: SPR.
Experiment [4] concerns the target LigA LigAVar13 (Leptospira interrogans) (UniProt Q72MA6). Kind of experiment: SPR.
For experiment [5], the target named is LigA LigAVar7'-8 (Leptospira interrogans) (UniProt Q72MA6). Kind of experiment: SPR.
The target of experiment [6] is LigA LigAVar10 (Leptospira interrogans) (UniProt Q72MA6). Kind of experiment: ELISA. For orientation: An ELISA detects its analyte on a solid surface through an enzyme-linked reagent.
The target of experiment [7] is LigA LigAVar13 (Leptospira interrogans) (UniProt Q72MA6). Kind of experiment: ELISA.
Experiment [8] has as its target Alexa-488 labeled LigBCen2RW1073C (Leptospira; L. interrogans serovar Pomona is the only strain named). Description: other fluorescence titration.
For experiment [9], the target named is LigAVar12 (Leptospira; L. interrogans serovar Pomona is the only strain named). Kind of experiment: SPR.
Experiment [10] has as its target LigBCen7'-8 (Leptospira; L. interrogans serovar Pomona is the only strain named). Description: SPR.
Experiment [11] has as its target LigBCen9 (Leptospira; L. interrogans serovar Pomona is the only strain named). Kind of experiment: SPR.
The target of experiment [12] is Gelatin-binding domain of human plasma fibronectin (human). Description: ELISA.
Experiment [13] has the same target. Kind of experiment: SEC-MALS; mixtures of Lig protein and GBD on Superose 6, 20 mM HEPES, 150 mM NaCl, pH 7.5. (In general: SEC sorts molecules by how far they enter the pores of the column.)
For experiment [14] the target is unchanged. Kind of experiment: ITC; GBD in the cell (1 ml), Lig protein in the syringe (250 µl), 25 injections of 10 µl, 25°C, Tris buffer with 100 µM CaCl2; independent binding model.

Fibronectin gelatin binding domain, sequence (P02751 306-608): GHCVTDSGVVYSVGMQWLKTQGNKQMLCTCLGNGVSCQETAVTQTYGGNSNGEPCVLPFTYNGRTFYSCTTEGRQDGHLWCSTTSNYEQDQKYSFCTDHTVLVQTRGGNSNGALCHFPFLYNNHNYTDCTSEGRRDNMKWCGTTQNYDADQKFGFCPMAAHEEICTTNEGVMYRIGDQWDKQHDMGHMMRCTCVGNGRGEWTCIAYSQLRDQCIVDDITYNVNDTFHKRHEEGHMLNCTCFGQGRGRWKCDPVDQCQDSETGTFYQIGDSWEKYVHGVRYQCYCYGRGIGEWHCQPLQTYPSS

For “Fibronectin gelatin binding domain (from UniProt P02751)”, the Kd amounted to 4.25 µM in experiment [1]; 5.04 µM in experiment [2]; 2.87 µM in experiment [3]; 10.4 µM in [4]; 6.68 µM in experiment [5]; 3.94 µM in experiment [6]. The same substance gave a dissociation constant (Kd) in experiment [7] of 11 µM.
On to “Gelatin-binding domain of human plasma fibronectin (domain or fragment)”, for which the equilibrium dissociation constant (Kd) in experiment [8] turned out to be 1.93 µM. The dissociation rate constant (koff) stood at 0.00678 s⁻¹ in [9], 0.00963 s⁻¹ in experiment [10] and 0.00473 s⁻¹ in [11]. For the same substance, the kon in experiment [9] is 2360 M⁻¹ s⁻¹; in [10] it was 3570 M⁻¹ s⁻¹; in [11] it was 560 M⁻¹ s⁻¹.
Substance LigAVar7'-9 (domain or fragment) had a dissociation constant Kd in experiment [12] of 6.58 µM. Also, the stoichiometry N in experiment [13] is 0.97 GBD: Lig. Besides, in experiment [14], the 1/n is 0.98 GBD: Lig, the Kd is 6.11 µM, the dH is -29.2 kcal/mol and the stoichiometry N was 1.02 Lig: GBD.
Turning to LigAVar7'-10 (domain or fragment), the Kd in experiment [12] is 4.72 µM. Besides, the stoichiometry N in [13] is 2 GBD: Lig. For the same substance, in experiment [14], the 1/n is 1.96 GBD: Lig, the Kd was 4.35 µM, the dH was -25.3 kcal/mol and the stoichiometry N was 0.51 Lig: GBD.
Take LigAVar7'-11 (domain or fragment): the Kd in [12] turned out to be 3.24 µM. The stoichiometry N in [13] is 2.96 GBD: Lig. Moreover, in experiment [14], the 1/n was 2.98 GBD: Lig, the Kd was found to be 3.13 µM, the dH was -22.1 kcal/mol and the stoichiometry N is 0.335 Lig: GBD.
Turning to LigAVar7'-12 (domain or fragment), in [12], the dissociation constant (Kd) amounted to 2.44 µM. Besides, in experiment [13], the stoichiometry N is 4.04 GBD: Lig. Besides, in [14], the 1/n was 3.92 GBD: Lig, the dissociation constant Kd came to 2.41 µM, the dH is -30.8 kcal/mol and the stoichiometry N is 0.255 Lig: GBD.
Substance LigAVar7'-13 (domain or fragment) registered a Kd in [12] of 0.048 µM. Moreover, the stoichiometry N in experiment [13] was 5.05 GBD: Lig. In [14], the 1/n was 4.92 GBD: Lig, the Kd is 0.047 µM, the dH was -94.9 kcal/mol and the stoichiometry N is 0.203 Lig: GBD.
As to LigBCen7'-8 (domain or fragment), in [13], the stoichiometry N is 1.01 GBD: Lig. Also, in [14], the 1/n was 1.01 GBD: Lig, the dissociation constant (Kd) is 2.28 µM, the dH is -20.4 kcal/mol and the stoichiometry N was 0.985 Lig: GBD.
In [12], LigBCen7'-9 (domain or fragment) gave a Kd of 1.39 µM. Also, the stoichiometry N in experiment [13] was 2.05 GBD: Lig. In experiment [14], the 1/n was 1.92 GBD: Lig, the Kd was 1.31 µM, the dH was -21.1 kcal/mol and the stoichiometry N is 0.52 Lig: GBD.
For the substance LigBCen7'-10 (domain or fragment), the dissociation constant Kd in experiment [12] stood at 1.46 µM. For the same substance, the stoichiometry N in experiment [13] was 2 GBD: Lig. Further, in experiment [14], the 1/n was 1.96 GBD: Lig, the Kd is 1.35 µM, the dH is -26.7 kcal/mol and the stoichiometry N was 0.51 Lig: GBD.
As for LigBCen7'-11 (domain or fragment), the Kd in experiment [12] was 1.47 µM. Besides, the stoichiometry N in experiment [13] was 1.98 GBD: Lig. In addition, in experiment [14], the 1/n was 2.08 GBD: Lig, the Kd was determined as 1.39 µM, the dH is -29 kcal/mol and the stoichiometry N is 0.479 Lig: GBD.
